Reference: publication PMC12918760

Assays:
NONO homodimer = molecular target: T1, NONO homodimer (human, UniProt Q15233 53-312); assay: MST
T1 sequence: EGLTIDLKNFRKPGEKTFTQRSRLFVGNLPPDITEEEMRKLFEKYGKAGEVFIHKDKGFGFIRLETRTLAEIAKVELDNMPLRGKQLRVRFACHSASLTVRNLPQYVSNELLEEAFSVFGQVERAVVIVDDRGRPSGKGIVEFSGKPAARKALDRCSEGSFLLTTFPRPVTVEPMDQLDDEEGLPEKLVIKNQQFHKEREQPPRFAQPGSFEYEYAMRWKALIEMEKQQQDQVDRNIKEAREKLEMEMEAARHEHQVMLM

[1] = molecular target: T2, NONO in NONO/SFPQ heterodimer;SFPQ in NONO/SFPQ heterodimer (human;human?, UniProt Q15233;P23246 53-312;276-535, |); assay: MST
T2 sequence 1: T1 sequence
T2 sequence 2: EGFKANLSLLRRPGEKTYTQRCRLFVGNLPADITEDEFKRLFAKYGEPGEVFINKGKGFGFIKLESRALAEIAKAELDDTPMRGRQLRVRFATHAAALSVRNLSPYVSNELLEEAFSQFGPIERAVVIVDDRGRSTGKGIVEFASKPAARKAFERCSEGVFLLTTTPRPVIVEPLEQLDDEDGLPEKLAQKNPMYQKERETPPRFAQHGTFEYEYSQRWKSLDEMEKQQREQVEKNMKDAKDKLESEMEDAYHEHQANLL

TUGUGCCGUCU (ssRNA, 5' residue printed as T) [GU-rich RNA oligo 2]
binding result (NONO homodimer): binds | binding result [1]: binds

TGUGUGUGGCCGU (ssRNA, 5' residue printed as T) [GU-rich RNA oligo 1]
binding result (NONO homodimer): binds | binding result [1]: binds
